Data from patent publication US20250136910A1, “DEVICES FOR USE AS BLOOD BRAIN BARRIER MODELS” (Merck Sharp & Dohme LLC, priority 2023, published 2025).

Assays:
[1] = tested on: GFP HBMECs; assay: Ang-1 addition to perfusion media, serpentine gel endothelialized with GFP HBMECs; assay type: cell-based, human; settings: complete Vasculife 3 days, then Ang-1 at 15 ng/ml for 3 days; perfused at 5 μL min^−1; day 6
Experimental: GFP HBMECs was seeded in the vascular channel at 30M mL^−1and perfused at 5 μL min^−1for duration of the study. […] Overlay and individual channels of GFP HBMEC and VE-Cadherin shown.
Once this was confirmed using HUVECs, the incorporation of Ang-1 to the perfusion media was tested on a gel endothelialized with GFP HBMECs. The same strategy was employed where the gel was perfused for 3 days with complete Vasculife media, then switched to a Vasculife media where Ang-1 was added in at 15 ng/ml for the remaining three days of perfusion culture. Images of cell morphology in the serpentine on days 3, 6, and after fixing and immunostaining for VE-Cadherin are seen in FIG. 26a. […] A magnified portion of the center channel is shown in FIG. 26b, which highlights the morphology of the GFP HBMECs and VE-Cadherin and includes nuclei in the overlay.

[2] = tested on: GFP HUVECs; assay: Ang-1 addition to perfusion media, channels endothelialized with GFP HUVECs; assay type: cell-based, human; settings: complete Vasculife (with VEGF) 3 days, then Ang-1 added 15 ng mL^−1; perfused at 5 μL min^−1
Experimental: FIGS. 25a-25c show immunostained VE-Cadherin junctions for channels endothelialized with GFP HUVECs (30M mL^−1) after being exposed to different media compositions. […] This gel was sustained for a total of twelve days while being perfused at 5 μL min^−1.
For the HUVECs, a mature monolayer was able to be obtained through modulation of the media composition and utilizing biomolecules that play an important role in endothelial cell function. In addition to the removal of VEGF, another avenue explored was the addition of Angiopoetin-1 (Ang-1). Angiopoetin-1 is a glycoprotein that is a known ligand for the endothelial cell-specific receptor tyrosine kinase, Tie-2 receptor. In vascular development during embryogenesis, VEGF and Ang-1 play essential and complementary roles. Vascular endothelial growth factor (VEGF) is responsible for the initial formation of the vascular plexus, while Angiopoetin-1 (Ang-1) is responsible for the subsequent remodeling of the vasculature into a network of mature vessels. […] The incorporation of this glycoprotein was first assessed using hydrogels endothelialized with GFP HUVECs. Three different media strategies were employed to assess the effect of adding Ang-1 to the perfusion media. […]

B1: Ang-1: glycoprotein that is a known ligand for the endothelial cell-specific receptor tyrosine kinase, Tie-2 receptor (protein, UniProt Q15389 16-498, looked up)
Angiopoietin-1: HIGCSNQRRSPENSGRRYNRIQHGQCAYTFILPEHDGNCRESTTDQYNTNALQRDAPHVEPDFSSQKLQHLEHVMENYTQWLQKLENYIVENMKSEMAQIQQNAVQNHTATMLEIGTSLLSQTAEQTRKLTDVETQVLNQTSRLEIQLLENSLSTYKLEKQLLQQTNEILKIHEKNSLLEHKILEMEGKHKEELDTLKEEKENLQGLVTRQTYIIQELEKQLNRATTNNSVLQKQQLELMDTVHNLVNLCTKEGVLLKGGKREEEKPFRDCADVYQAGFNKSGIYTIYINNMPEPKKVFCNMDVNGGGWTVIQHREDGSLDFQRGWKEYKMGFGNPSGEYWLGNEFIFAITSQRQYMLRIELMDWEGNRAYSQYDRFHIGNEKQNYRLYLKGHTGTAGKQSSLILHGADFSTKDADNDNCMCKCALMLTGGWWFDACGPSNLNGMFYTAGQNHGKLNGIKWHYFKGPSYSLRSTTMMIRPLDF
With B1 the “endothelium confluence by VE-Cadherin immunostaining” value [1] was “a confluent endothelium of brain microvascular endothelial cells lining the serpentine channel has been achieved” and the “endothelial monolayer retention in perfusion culture” value [2] was “retained an endothelial monolayer for twelve days of perfusion culture”.
